Results: patent US20170088602A1 (Bristol-Myers Squibb, published 2017)
Read-outs that look alike come from different tables or passages of the source.

T1: human BMP-11 (GDF-11; R&D Systems) (human, UniProt O95390 299-407)
T1 sequence (looked up): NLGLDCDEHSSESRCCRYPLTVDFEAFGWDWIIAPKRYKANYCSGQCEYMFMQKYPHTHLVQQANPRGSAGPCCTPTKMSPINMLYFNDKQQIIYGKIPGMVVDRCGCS

T2: human myostatin (mature, recombinant; R&D Systems) (human, UniProt O14793 267-375)
T2 sequence: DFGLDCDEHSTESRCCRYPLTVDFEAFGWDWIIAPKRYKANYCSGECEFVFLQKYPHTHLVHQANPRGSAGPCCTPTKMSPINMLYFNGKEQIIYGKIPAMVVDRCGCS

T3: human Activin A (R&D Systems) (human, UniProt P08476 311-426)
T3 sequence (looked up): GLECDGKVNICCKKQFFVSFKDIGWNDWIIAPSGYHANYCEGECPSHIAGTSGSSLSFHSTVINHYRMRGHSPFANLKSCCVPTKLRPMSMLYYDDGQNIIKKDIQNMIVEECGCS


Tests used:
[1] = molecular target: T1, human BMP-11 (GDF-11; R&D Systems); experiment: cell-based or functional assay
[2] = molecular target: T2, human myostatin (mature, recombinant; …); experiment: cell-based or functional assay
[3] = molecular target: T3, human Activin A (R&D Systems); experiment: cell-based or functional assay
[4] = molecular target: T2, human myostatin (mature, recombinant; …); experiment: cell-based or functional assay; remark: listed apart in the source
[5] = molecular target: T1, human BMP-11 (GDF-11; R&D Systems); experiment: SPR format A, 25C
Source text: (§1) Anti-human Fc antibody (Biacore/GE) was immobilized on a Biacore CM5 chip via NHS/EDC coupling according to the manufacturer's instructions. […] A concentration range of anti-myostatin Adnectin was applied across all flow cells in HBSP running buffer. Regeneration of the chip surface between cycles was accomplished with two 30 second pulses of 3M MgCl₂. Kinetic traces of reference-subtracted sensorgrams were fit to a 1:1 binding model using Biaevaluation software.

[6] = molecular target: T2, human myostatin (mature, recombinant; …); experiment: SPR format A, 25C
Source text: as §1

[7] = molecular target: T3, human Activin A (R&D Systems); experiment: SPR format A, 25C
Source text: as §1

[8] = molecular target: T2, human myostatin (mature, recombinant; …); experiment: cell-based or functional assay; remark: listed apart in the source
[9] = molecular target: T2, human myostatin (mature, recombinant; …); experiment: competitive HTRF, alanine scan
[10] = molecular target: T2, human myostatin (mature, recombinant; …); experiment: cell-based or functional assay; remark: listed apart in the source
[11] = molecular target: T2, human myostatin (mature, recombinant; …); experiment: HTRF competition binding assay, alanine mutant against 3116_A06
[12] = molecular target: T1, human BMP-11 (GDF-11; R&D Systems); experiment: cell-based or functional assay; remark: listed apart in the source
[13] = molecular target: T2, human myostatin (mature, recombinant; …); experiment: cell-based or functional assay; remark: listed apart in the source
[14] = molecular target: T3, human Activin A (R&D Systems); experiment: cell-based or functional assay; remark: listed apart in the source
[15] = molecular target: T1, human BMP-11 (GDF-11; R&D Systems); experiment: SPR Format B; immobilized BMP11, no pre-bound PRD-1474
Experimental: (§2) Adnectin competition using “SPR format B”: The mechanism of action for anti-myostatin Adnectins was further evaluated in “SPR Format B”, where myostatin or BMP11 (10 μg/ml in 10 mM acetate pH 4.5) were directly immobilized on a CM5 sensor chip surface using EDC/NHS coupling chemistry to a density of 985 RU (myostatin) or 530 RU (BMP11). […] The running buffer for immobilization and competition experiments was 10 mM HEPES, 150 mM NaCl, 3 mM EDTA, and 0.05% v/v Surfactant P20, pH 7.4, and surfaces were regenerated between cycles using 4 injections of 50 mM NaOH for 15 s at 30 μl/min.

[16] = molecular target: T1, human BMP-11 (GDF-11; R&D Systems); experiment: SPR Format B; immobilized BMP11 with pre-bound PRD-1474 as competitor
Experimental: as §2

[17] = molecular target: T1, human BMP-11 (GDF-11; R&D Systems); experiment: SPR Format A; 100 nM BMP11 alone
Experimental: (§3) Competition SPR: Competitive binding assays to evaluate the ability of anti-myostatin Adnectins to compete with Type I and Type II receptors for binding to myostatin or BMP11, as a surrogate for myostatin, were also conducted using SPR on a Biacore T100 instrument, in two different experimental formats. In “SPR Format A”, sensor chip surfaces were prepared by immobilizing 100 ug/ml protein A (Pierce) in 10 mM acetate pH 4.5 to 4500 RU on a CM5 sensor chip (Biacore/GE Healthcare) using standard ethyl(dimethylaminopropyl) carbodiimide (EDC)/N-hydroxysuccinimide (NHS) chemistry, with ethanolamine blocking. […] The running buffer for immobilization and competition experiments was 10 mM HEPES, 150 mM NaCl, 3 mM EDTA, and 0.05% v/v Surfactant P20, pH 7.4, and surfaces were regenerated between cycles using two injections of 10 mM glycine pH 1.5 for 30 s at 30 μl/min.

[18] = molecular target: T1, human BMP-11 (GDF-11; R&D Systems); experiment: SPR Format A; 100 nM BMP11 with 200 nM ATI-1523 as competitor
Experimental: as §3

| Binder | ARE-luciferase IC50 [1] [nM] | ARE-luciferase IC50 [2] [nM] | ARE-luciferase IC50 [3] [nM] | pSmad2 IC50, 12-point [4] [nM] | Kd [5] [nM] | Kd [6] [nM] | binding result [7] | also measured |
| --- | --- | --- | --- | --- | --- | --- | --- | --- |
| 2524_C11 (designed binder) MGVSDVPRDLEVVAATPTSLLISWTLPHAGLAHYYRITYGETGGNSPVQEFTVPGRGVTATISGLKPGVDYTITVYAVTLTNSEIILYKPISINYRTEIDKPSQHHHHHH | 0.89 | 0.1 | 765 | 0.14 | 0.67 | 0.62 | no binding |  |
| 2524_E10 (designed binder) MGVSDVPRDLEVVAATPTSLLISWSLPFAGHLNYYRITYGETGGNSPVQEFTVPGRGVTATISGLKPGVDYTITVYAVTLTRSKIIHYMPISINYRTEIDKPSQHHHHHH | 5.6 | 0.09 | > 1000 | 0.13 | 1.42 | 1.34 | no binding |  |
| 2524_H11 (designed binder) MGVSDVPRDLEVVAATPTSLLISWSLPHAGHAHYYRITYGETGGNSPVQEFTVPGRGVTATISGLKPGVDYTITVYAVTVSSTKVIVYLPISINYRTEIDKPSQHHHHHH | 6.2 | 0.03 | > 1000 | 0.11 | 1.22 | 1.12 | no binding |  |
| 2525_D05 (designed binder) MGVSDVPRDLEVVAATPTSLLISWSLPYAGHLNYYRITYGETGGNSPVQEFTVPGRGVTATISGLKPGVDYTITVYAVTLTKSQLIHYMPISINYRTEIDKPSQHHHHHH | 3.9 | 0.11 | > 1000 | 0.2 | 1.99 | 1.28 | no binding |  |
| 2062_G02 (designed binder, also called ATI-1134) MGVSDVPRDLEVVAATPTSLLISWVSPRGRARYYRITYGETGGNSPVQEFTVPGRGSTATISGLKPGVDYTITVYAVTIYRDGMSHHDPISINYRTEIDKPSQHHHHHH | 1500 | 205 | > 1500 | 59.1 | 697 | 48.8 | no binding |  |
| 2523_G06 (designed binder) MGVSDVPRDLEVVAATPTSLLISWWAPLGLARYYRITYGETGGNSPVQEFTVPGRGSTATISGLKPGVDYTITVYAVTIFRTGMVQYDPISINYRTEIDKPSQHHHHHH | 46 | 4.2 | > 2000 | 0.78 | 10.7 | 1.47 | no binding |  |
| 3116_A06 G30A (designed binder) MGVSDVPRDLEVVAATPTSLLISWSLPHQAKANYYRITYGETGGNSPVQEFTVPGRGVTATISGLKPGVDYTITVYAVTVTDTGYLKYKPISINYRTEIDKPSQHHHHHH |  |  |  |  |  |  |  | Myostatin ARE-luc IC50 [8]: 40 nM; IC50 [9]: 5.1 nM; ARE-luciferase cell-based assay, IC50 relative to parent sequence [10]: > 10 fold; fold increase in IC50 relative to the parental sequence (WT) [11]: > 10 fold |
| 3116_A06 T81A (designed binder) MGVSDVPRDLEVVAATPTSLLISWSLPHQGKANYYRITYGETGGNSPVQEFTVPGRGVTATISGLKPGVDYTITVYAVTVADTGYLKYKPISINYRTEIDKPSQHHHHHH |  |  |  |  |  |  |  | Myostatin ARE-luc IC50 [8]: 32 nM; IC50 [9]: 4.9 nM; ARE-luciferase cell-based assay, IC50 relative to parent sequence [10]: > 10 fold; fold increase in IC50 relative to the parental sequence (WT) [11]: > 10 fold |
| 3116_A06 V80A (designed binder) MGVSDVPRDLEVVAATPTSLLISWSLPHQGKANYYRITYGETGGNSPVQEFTVPGRGVTATISGLKPGVDYTITVYAVTATDTGYLKYKPISINYRTEIDKPSQHHHHHH |  |  |  |  |  |  |  | Myostatin ARE-luc IC50 [8]: > 100 nM; IC50 [9]: 4 nM; fold increase in IC50 relative to the parental sequence (WT) [11]: > 10 fold |
| 3116_A06 Y88A (designed binder) MGVSDVPRDLEVVAATPTSLLISWSLPHQGKANYYRITYGETGGNSPVQEFTVPGRGVTATISGLKPGVDYTITVYAVTVTDTGYLKAKPISINYRTEIDKPSQHHHHHH |  |  |  |  |  |  |  | Myostatin ARE-luc IC50 [8]: > 100 nM; IC50 [9]: 11 nM; fold increase in IC50 relative to the parental sequence (WT) [11]: > 10 fold |
| ATI-1107 [40K 2-branch PEG] (designed binder, 40K 2-branch PEG on the Cys of the GSGC tail, cysteine mutant of 1979_B06) MGVSDVPRDLEVVAATPTSLLISWSLPHAGHVNYYRITYGETGGNSPVQEFTVPGRGVTATISGLKPGVDYTITVYAVTLTKSQMIHYMPISINYRTGSGCHHHHHH |  |  |  |  | ~300 | 128 | no binding | ARE-luciferase IC50 [12]: 888 nM; ARE-luciferase IC50 [13]: 19 nM; ARE-luciferase IC50 [14]: > 2000 nM |
| ALK4-Fc (R&D Systems) (Fc fusion, UniProt P36896 24-126, looked up, not shown: a dimerising Fc or GST, also called activin receptor-like kinase 4 Fc) SGPRGVQALLCACTSCLQANYTCETDGACMVSIFNLDGMEHHVRTCIPKVELVPAGKPFYCLSSEDLRNTHCCYTDYCNRIDLRVPSGHLKEPEHPSMWGPVE |  |  |  |  |  |  |  | SPR binding response (normalized) [15]: 100%; SPR binding response (normalized) [16]: 30%; SPR binding response (normalized) [17]: 100%; SPR binding response (normalized) [18]: 2% |
| ALK5-Fc (R&D Systems) (Fc fusion, UniProt P36897 34-125, looked up, not shown: a dimerising Fc or GST) LQCFCHLCTKDNFTCVTDGLCFVSVTETTDKVIHNSMCIAEIDLIPRDRPFVCAPSSKTGSVTTTYCCNQDHCNKIELPTTVKSSPGLGPVE |  |  |  |  |  |  |  | SPR binding response (normalized) [15]: 100%; SPR binding response (normalized) [16]: 65%; SPR binding response (normalized) [17]: 100%; SPR binding response (normalized) [18]: 31% |
| ActRIIB-Fc (produced in house) (Fc fusion, UniProt Q13705 19-134, looked up, not shown: a dimerising Fc or GST) SGRGEAETRECIYYNANWELERTNQSGLERCEGEQDKRLHCYASWRNSSGTIELVKKGCWLDDFNCYDRQECVATEENPQVYFCCCEGNFCNERFTHLPEAGGPEVTYEPPPTAPT |  |  |  |  |  |  |  | SPR binding response (normalized) [17]: 100%; SPR binding response (normalized) [18]: 189% |
| ActRIIB-monomer (produced in house) (receptor, UniProt Q13705 19-134, looked up) SGRGEAETRECIYYNANWELERTNQSGLERCEGEQDKRLHCYASWRNSSGTIELVKKGCWLDDFNCYDRQECVATEENPQVYFCCCEGNFCNERFTHLPEAGGPEVTYEPPPTAPT |  |  |  |  |  |  |  | SPR binding response (normalized) [15]: 100%; SPR binding response (normalized) [16]: 92% |
